The target of experiment [1] is Human Monocyte Chemoattractant Protein-1 (MCP-1) (human) (UniProt P13500). In words: cell-based or functional assay.
Experiment [2] has the same target. Kind of experiment: IGEN (BioVeris), MCP-1 Kd.
Experiment [3] has the same target. In words: 125I-MCP-1 binding to CCR2 on THP-1 cells, radioligand competition. (Displacement assays read how much labelled ligand stays bound in the presence of the test substance.)
Experiment [4] deals with HuMCP-1-His6 (wild type) (human) (UniProt P13500). In words: Biacore. For orientation: SPR reads the build-up and loss of mass on a sensor chip optically.
Chain of HuMCP-1-His6 (wild type) (human) (P13500 24-99 limits assumed): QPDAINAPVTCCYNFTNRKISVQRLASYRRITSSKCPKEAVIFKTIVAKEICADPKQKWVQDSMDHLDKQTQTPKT
In experiment [5] the target is HuMCP-1-His6 Mutant-6 (66D → 66K) (human) (UniProt P13500). In words: Biacore.
Chain of HuMCP-1-His6 Mutant-6 (66D → 66K) (human) (P13500 other isoform, or with tags, fused parts or gaps mutant, form in doubt): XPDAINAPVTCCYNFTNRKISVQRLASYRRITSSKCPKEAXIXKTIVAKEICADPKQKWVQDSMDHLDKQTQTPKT
The target of experiment [6] is HuMCP-1-His6 Mutant-P8A (human) (UniProt P13500). Kind of experiment: Biacore, C775 captured, MCP-1-His6 in solution.
Chain of HuMCP-1-His6 Mutant-P8A (human) (P13500 other isoform, or with tags, fused parts or gaps limits assumed, stated change not applied): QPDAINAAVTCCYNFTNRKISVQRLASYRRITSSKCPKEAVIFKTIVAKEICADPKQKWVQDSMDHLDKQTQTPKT
Experiment [7] has as its target HuMCP-1-His6 Mutant-1 (33SSK35 → 33NIQ35) (human) (UniProt P13500). Kind of experiment: Biacore, C775 captured, MCP-1-His6 in solution.
In experiment [8] the target is HuMCP-1-His6 Mutant-7 (4AINA7 → 4SVSI7) (human) (UniProt P13500). Kind of experiment: Biacore, C775 captured, MCP-1-His6 in solution.
Chain of HuMCP-1-His6 Mutant-7 (4AINA7 → 4SVSI7) (human) (P13500 other isoform, or with tags, fused parts or gaps mutant limits assumed): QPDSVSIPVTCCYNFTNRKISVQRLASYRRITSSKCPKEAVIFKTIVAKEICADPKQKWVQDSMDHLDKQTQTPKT
Experiment [9] addresses HuMCP-1-His6 Mutant-4 (29R → 29T) (human) (UniProt P13500). Kind of experiment: Biacore, C775 captured, MCP-1-His6 in solution.
Experiment [10] has as its target HuMCP-1-His6 (wild type) (human) (UniProt P13500). Kind of experiment: Biacore, C775 captured, MCP-1-His6 in solution.
Experiment [11] has as its target HuMCP-1-His6 Mutant-Y13A (human) (UniProt P13500). Kind of experiment: Biacore, C775 captured, MCP-1-His6 in solution.
Experiment [12] addresses HuMCP-1-His6 Mutant-2 (6NA7 → 6SI7) (human) (UniProt P13500). In words: Biacore, C775 captured, MCP-1-His6 in solution.
Experiment [13] deals with HuMCP-1-His6 Mutant-8 (4AINA7 → 4GGGG7) (human) (UniProt P13500). Kind of experiment: Biacore, C775 captured, MCP-1-His6 in solution.
Chain of HuMCP-1-His6 Mutant-8 (4AINA7 → 4GGGG7) (human) (P13500 other isoform, or with tags, fused parts or gaps mutant limits assumed): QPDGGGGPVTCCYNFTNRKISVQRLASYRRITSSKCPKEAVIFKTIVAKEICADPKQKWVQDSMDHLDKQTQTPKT
The target of experiment [14] is HuMCP-1-His6 Mutant-5 (46IV47 → 46KR47) (human) (UniProt P13500). Kind of experiment: Biacore, C775 captured, MCP-1-His6 in solution.
Chain of HuMCP-1-His6 Mutant-5 (46IV47 → 46KR47) (human) (P13500 other isoform, or with tags, fused parts or gaps mutant limits assumed): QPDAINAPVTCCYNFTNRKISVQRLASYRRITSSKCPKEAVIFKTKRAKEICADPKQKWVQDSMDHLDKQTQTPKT
Experiment [15] has as its target HuMCP-1-His6 Mutant-6 (66D → 66K) (human) (UniProt P13500). In words: Biacore, C775 captured, MCP-1-His6 in solution.
Experiment [16] has as its target HuMCP-1-His6 Mutant-9 (4AINA7 . . . 46IV47 → 4SVSI7 . . . 46KR47) (human). Kind of experiment: Biacore, C775 captured, MCP-1-His6 in solution.
The target in experiment [17] is HuMCP-1-His6 Mutant-3 (15FT16 → 15VI16) (human) (UniProt P13500). Kind of experiment: Biacore, C775 captured, MCP-1-His6 in solution.
Chain of HuMCP-1-His6 Mutant-3 (15FT16 → 15VI16) (human) (P13500 other isoform, or with tags, fused parts or gaps mutant limits assumed): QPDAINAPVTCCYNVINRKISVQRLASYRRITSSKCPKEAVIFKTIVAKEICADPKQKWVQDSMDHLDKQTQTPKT

For orientation: Kd means the constant that tells how readily two partners part at equilibrium. A lower Kd goes with tighter binding. The IC50 is the concentration that gives 50% inhibition. The koff is the first-order rate constant of dissociation. A low value points to a long-lived complex. By kon is commonly meant a measure of how fast the partners come together. A lower kon goes with slow association.

Chain of HuMCP-1-His6 Mutant-9 (4AINA7 . . . 46IV47 → 4SVSI7 . . . 46KR47) (human) (chain, as listed by the source mutant limits assumed): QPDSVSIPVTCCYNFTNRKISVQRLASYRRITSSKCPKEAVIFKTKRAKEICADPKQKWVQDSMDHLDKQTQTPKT
Chain of HuMCP-1-His6 Mutant-1 (33SSK35 → 33NIQ35) (human) (P13500 other isoform, or with tags, fused parts or gaps mutant limits assumed): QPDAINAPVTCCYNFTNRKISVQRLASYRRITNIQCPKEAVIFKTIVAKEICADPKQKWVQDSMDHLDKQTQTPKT
Chain of HuMCP-1-His6 Mutant-Y13A (human) (P13500 24-99 Y36A limits assumed): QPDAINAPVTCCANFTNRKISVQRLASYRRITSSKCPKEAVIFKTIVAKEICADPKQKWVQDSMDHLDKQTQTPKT
Chain of HuMCP-1-His6 Mutant-4 (29R → 29T) (human) (P13500 other isoform, or with tags, fused parts or gaps mutant limits assumed): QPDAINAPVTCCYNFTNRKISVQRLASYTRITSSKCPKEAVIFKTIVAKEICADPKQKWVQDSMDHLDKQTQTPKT
Chain of Human Monocyte Chemoattractant Protein-1 (MCP-1) (human) (P13500 24-99 limits assumed): as the sequence (P13500 24-99 limits assumed) above
Chain of HuMCP-1-His6 Mutant-2 (6NA7 → 6SI7) (human) (P13500 other isoform, or with tags, fused parts or gaps mutant limits assumed): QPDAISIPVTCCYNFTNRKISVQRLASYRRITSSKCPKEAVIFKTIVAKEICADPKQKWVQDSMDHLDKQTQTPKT

B1: C775 Fab (reference Fab) (Fab, from another filing, V domains shown)
VH: QVQLKQSGAELVRPGASVKLSCKASGYTFTDYYINWVKQRPGQGLEWIARIYPGTGNTYYNENFKGKATLTAEKSSSTAYMQLSSLTSEDSAVYFCARSGSTVVGNYYGMDYWGQGTSVTVSS
VL: SIVMTQTPKFLLVSAGDRVSITCKASQSVSNDVAWYQQKPGQSPKLLIYYASNRYTGVPDRFTGSGYGTDFTFTISTVQAEDLAVYFCQQDYSSPWTFGGGTKLEIKR
The molecule B1 showed an Inhibition of Ca2+ Mobilization IC50 in experiment [1] of 71.5 nM. Further, the Kd in [2] was found to be 65 nM. This molecule also yielded an IC50 in experiment [3] of 35.6 nM.

B2: C775 (murine anti-human MCP-1 antibody, IgG) (antibody, from another filing, V domains shown)
VH: QVQLKQSGAELVRPGASVKLSCKASGYTFTDYYINWVKQRPGQGLEWIARIYPGTGNTYYNENFKGKATLTAEKSSSTAYMQLSSLTSEDSAVYFCARSGSTVVGNYYGMDYWGQGTSVTVSS
VL: SIVMTQTPKFLLVSAGDRVSITCKASQSVSNDVAWYQQKPGQSPKLLIYYASNRYTGVPDRFTGSGYGTDFTFTISTVQAEDLAVYFCQQDYSSPWTFGGGTKLEIKR
Consider B2, for which the Inhibition of Ca2+ Mobilization IC50 in experiment [1] worked out at 62.3 nM. The same molecule yielded a 50% inhibitory concentration (IC50) in experiment [3] of 25.6 nM. The dissociation constant (Kd) in experiment [4] was found to be 3 nM; in [6], 2.6 nM; in experiment [7], 2 nM; in experiment [8], 4.5 nM; in experiment [9], 3 nM; in experiment [10] it was 3.1 nM. Also, the Kd in experiment [11] amounted to 1.7 nM; in [12], 6.3 nM; in experiment [13], 5.5 nM; in experiment [14], 1.7 nM; in experiment [15] it was 27.7 nM; in experiment [16] it was 1.7 nM. Moreover, the Kd in experiment [17] came to 4.5 nM. Further, the fold decrease in fold change in binding affinity against wild type MCP-1 in experiment [5] was 9 fold. The koff in experiment [6] came out at 0.00448 s⁻¹; in experiment [7], 0.0034 s⁻¹; in [8] it was 0.00327 s⁻¹; in experiment [9], 0.0027 s⁻¹; in experiment [10], 0.00503 s⁻¹; in experiment [11], 0.003 s⁻¹. Besides, the off-rate constant (koff) in experiment [12] was 0.00548 s⁻¹; in [13], 0.00947 s⁻¹; in experiment [14] it was 0.00278 s⁻¹; in [15] it was 0.00541 s⁻¹; in experiment [16] it was 0.00531 s⁻¹; in [17] it was 0.0074 s⁻¹. Moreover, the on-rate (kon) came out at 1.75e+06 M⁻¹ s⁻¹ in [6]; 1.6e+06 M⁻¹ s⁻¹ in experiment [7]; 720000 M⁻¹ s⁻¹ in [8]; 880000 M⁻¹ s⁻¹ in experiment [9]; 1.64e+06 M⁻¹ s⁻¹ in experiment [10]; 1.79e+06 M⁻¹ s⁻¹ in experiment [11]. Further, the on-rate (kon) worked out at 868000 M⁻¹ s⁻¹ in [12]; 1.73e+06 M⁻¹ s⁻¹ in experiment [13]; 1.64e+06 M⁻¹ s⁻¹ in experiment [14]; 195000 M⁻¹ s⁻¹ in experiment [15]; 3.16e+06 M⁻¹ s⁻¹ in experiment [16]; 1.66e+06 M⁻¹ s⁻¹ in experiment [17].
